Source: patent publication JP2020117470A (dated 2020)

Biological target: T1, Streptococcus pyogenesのStreptolysin O(SLO) (Streptococcus pyogenes, UniProt P0C0I3 34-571)
T1 sequence: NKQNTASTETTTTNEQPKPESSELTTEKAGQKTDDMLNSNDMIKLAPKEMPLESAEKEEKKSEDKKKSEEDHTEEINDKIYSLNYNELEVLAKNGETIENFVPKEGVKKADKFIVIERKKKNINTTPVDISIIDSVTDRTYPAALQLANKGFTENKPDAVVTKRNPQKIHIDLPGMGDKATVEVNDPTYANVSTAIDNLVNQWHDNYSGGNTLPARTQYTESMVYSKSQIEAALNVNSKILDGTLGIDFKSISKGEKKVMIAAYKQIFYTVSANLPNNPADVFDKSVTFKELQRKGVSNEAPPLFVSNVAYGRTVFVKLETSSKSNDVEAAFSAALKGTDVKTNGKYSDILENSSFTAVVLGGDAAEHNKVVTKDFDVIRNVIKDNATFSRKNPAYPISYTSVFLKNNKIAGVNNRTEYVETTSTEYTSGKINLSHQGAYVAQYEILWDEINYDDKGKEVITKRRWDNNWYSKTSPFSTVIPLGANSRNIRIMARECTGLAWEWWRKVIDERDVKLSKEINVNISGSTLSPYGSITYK
Test: ELISA, plate coated with 1 μg/mL SLO, anti-mouse IgG-HRP detection

B1: 抗体HS2 (antibody, V domains shown)
V domain 1: VQLQESGPELVKPGASVKISCKASGYAFSSSWMNWVRQRPGQGLEWIGRIYPGDGDTNYNGKFKGKATLTADKSSNAAYMHLSSLTSVDSAVYFCARRNYGSGFLYYFDYWGQGTTLTV
V domain 2: QIVLSQFPAILSASPGEKVTMTCRASSSVSYMHWYQQKPGSSPKLWIYATSDLASGVPARFSGSGSGTSYSLTISRVEAEDAATYYCQQWSSNPPTFGGGTKL
binding result: no binding

B2: 抗体HS3 (antibody, V domains shown)
VH: EVQLQESGPDLVKPSQSLSLICTVTGYSITSGYNWHWIRQFPGNKLEWMAYIDYTGSTHYNPSLKSRISITRDTSKNHFFLQLNSVTTEDTATYYCARDYGNYEWSFDVWGAGTTVTVSS
VL: DIQMNQSPSSLSASLGDTITITCHASQNINVWLSWYQQKPGNIPKLLIYKASNLHTGVPSRFSGSGSGTGFTLTISSLQPEDIATYYCQQGQSYPLTFGAGTKL
binding result: no binding
